Source: the supplement of paper PMC10126150
± gives the standard deviation of the averaged measurements.

Each sequence was assayed on ATP (assay: switch fluorescence ratio, 500 uM ATP over buffer (Cy3 cluster intensity, sum of 5 cycles each) (fold (ratio)); higher = stronger signal-on switching upon ATP binding; sequences stand for … in TCGTCGGCAGCGTCAGATGTGTATAAGAGACAGTTTTTTTTTTTTTTTTTTTTTTTTT…TC). Conditions: aptamer strand: ATP DNA aptamer (quencher-CACCTGGGGGAGTATTGCGGAGGAAGG + anchor), 100 nM annealed; ATP concentration: 500 uM.
Procedure, shortened: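 For every switch-domain sequence, the fluorescence ratio is the mean of per-cluster values, each being summed target-cycle Cy3 intensity over summed buffer-cycle Cy3 intensity. Clusters outside 100-1000 RFU were excluded. On a modified Illumina MiSeq flow-cell, the Cy3-labelled switching-strand clusters were annealed to 100 nM quencher-labelled ATP aptamer, imaged in selection buffer and then after 15 min with 500 uM ATP at 22 °C. Five such cycles were run, with NaOH stripping and re-annealing between them.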
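Note: ATP exposure 15 min at 22 °C before imaging.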

Sequence	switch fluorescence ratio
GCGGGATGTC	0.972 ± 0.02
GTTGACCTCG	0.992 ± 0.03
GGCACTAGAC	1.09 ± 0.11
TTACGGGGGA	1.03 ± 0.072
TCCAGTAGGT	1.01 ± 0.0032
AAAGTTATGT	1 ± 0.045
TTACTTATTT	1.04 ± 0.035
TTATACGGAA	1.11 ± 0.057
GGCGGGACGG	1.01 ± 0.033
TGGCATATTT	1.05 ± 0.051
TAGTTTATTT	1 ± 0.015
AGTTTTTAGA	1.03 ± 0.033
GTTTGGATGC	0.963 ± 0.03
AACGGGCTAG	0.999 ± 0.014
TACAGAATGT	1.03 ± 0.023
TTGACGGGGG	1.01 ± 0.03
GGATATTTTT	1.01 ± 0.016
AAAGGGGTCG	1.07 ± 0.036
GCGGCAAAAT	1.01 ± 0.041
AGTGGGCTAT	0.999 ± 0.027
TTAAGTGCTC	0.983 ± 0.031
TTTGCGGGAT	1.03 ± 0.014
ATGGTTTCGC	0.9932 ± 0.0067

Sequence	switch fluorescence ratio
GCAGGCCCGA	1.009 ± 0.0034
TTAGGATG	1.01 ± 0.0092
ATGGGGGTAA	1.01 ± 0.024
TGGATAGGCA	0.986 ± 0.012
AAGGTTTTTC	1.01 ± 0.015
AGGGCCGTTG	0.996 ± 0.035
TTTTTATGCA	1.018 ± 0.0031
AGGTGGGTGG	1.02 ± 0.04
GGCAACGGGG	1.01 ± 0.036
CGCTTTTCTT	1.01 ± 0.0035
AGGGTATTTA	1.007 ± 0.01
GGTCGATGGT	0.99 ± 0.011
ATACACGGCG	1.045 ± 0.0087
AAACTTTCTA	1.05 ± 0.05
TGAAAAATGG	1.01 ± 0.031
AGGTTATGGG	1.04 ± 0.082
TGCTGGGTCC	1.02 ± 0.02
CTAGGAGGGC	1 ± 0.027
TAAAAGGCGG	1.03 ± 0.029
GGGTTGCGGA	0.966 ± 0.035
AGTTTTGTTT	1.01 ± 0.02
CTGGAATTTT	0.9949 ± 0.0028
AGATATCCGC	1.15 ± 0.05

Sequence	switch fluorescence ratio
CTGTCATGGG	0.9952 ± 0.0063
TTGATGCGTT	1.01 ± 0.015
AGCTCTAAAT	1.04 ± 0.068
TATCGGTAGC	1.017 ± 0.0025
TCTTTGATTT	1 ± 0.048
AAGTATAGCA	1.03 ± 0.014
TTTTTATTAT	1.01 ± 0.036
TAACCGATGT	1.01 ± 0.016
TAGCCAGCTC	0.996 ± 0.034
TTGGTGCTGG	1.01 ± 0.027
TTAAGGGATT	0.993 ± 0.032
CGAACTCGGA	1.012 ± 0.0076
ATTATGGGT	0.9931 ± 0.0086
TCTGTTCTT	1 ± 0.023
TGACCGTAGA	1.03 ± 0.028
AAAGTCGCGT	1 ± 0.032
AATCATCGTG	0.9646 ± 0.0043
CAGCGGAGGT	1.025 ± 0.0052
GCTCTTTGAC	0.987 ± 0.029
AGAACAGCAT	1.01 ± 0.021
GGTGCCTGAG	1.06 ± 0.03
CCGGGGATGT	1.05 ± 0.04
CAGCGAGGAA	1.014 ± 0.0091

Sequence	switch fluorescence ratio
CAGCCTTGGT	1.04 ± 0.11
TCAATGGTAA	0.97 ± 0.096
TTGGGTACAT	1.02 ± 0.011
GTGAATTGGG	1.03 ± 0.03
CGTCTTTAGA	0.987 ± 0.01
GTTGAAGCCC	1.013 ± 0.0071
TTGGAAGTGG	0.9995 ± 0.0088
GGCGTGGGGA	1.02 ± 0.017
ATCCCTAAAA	1.0207 ± 0.00031
GAGGCAAGG	1.341 ± 0.0038
AAAACATTCG	1.16 ± 0.12
CAGCCGTTTC	1.03 ± 0.033
TGAAATCATA	0.996 ± 0.037
TGGTTACTCG	0.984 ± 0.034
GGTGGAGAGC	0.99885 ± 0.00089
CACTACGGCC	1.04 ± 0.043
TTTTGCTGAC	1.14 ± 0.1
AAAGGGCGGA	0.9884 ± 0.009
GAAGTAGTCG	1.06 ± 0.017
TTAGGACTTT	0.975 ± 0.037
GGTAGATTTT	0.9792 ± 0.003
TATTGCCGGG	0.985 ± 0.036
CATATGTCTG	0.994 ± 0.015

Sequence	switch fluorescence ratio
AAGTGAAGCT	1 ± 0.015
ACTCGGACCG	1.0425 ± 0.00055
CGGAGGGAAA	0.963 ± 0.033
GTGGGGCACG	0.9933 ± 0.0095
AACTGGTCGC	1.14 ± 0.07
AGCATTGAGG	0.984 ± 0.0067
GGGTTGCACG	0.9936 ± 0.0015
AACTTATTTG	1 ± 0.028
GTCATGGTAG	1.02 ± 0.031
ATTAAATGGG	0.976 ± 0.036
GGGTACGTCG	0.996 ± 0.019
TGGCTCGGCT	1.03 ± 0.051
CGGGACTTGT	0.952 ± 0.067
TTGGAAGTC	1.04 ± 0.026
AAGTTGTCCG	0.964 ± 0.0091
ATCCGGGGTT	1.06 ± 0.057
TCAGACTTGC	1 ± 0.035
AGTAGTACGG	1 ± 0.029
CGTACTAGAT	0.9959 ± 0.0086
TGTTTTAGGC	0.977 ± 0.02
GATGCTATTT	1.004 ± 0.0087
CGGCAGTTCG	0.979 ± 0.014
GGGGTTATAG	1.04 ± 0.12

Sequence	switch fluorescence ratio
ACTCTGGGTC	1.07 ± 0.016
GAGTGTTCAG	0.997 ± 0.018
GGAGCAAAGG	2.63 ± 0.1
TTGCAAGGTT	1.01 ± 0.017
ATGCGGGATT	1.01 ± 0.023
CTGTTGGTGG	0.99 ± 0.017
TATCATGCGC	1.02 ± 0.054
GCTTGCACTA	0.998 ± 0.015
CATAAGGCAA	1.282 ± 0.0088
AACGTTTTTT	0.991 ± 0.027
AATGTAGCAC	1.048 ± 0.0063
AACAGGACAT	1.06 ± 0.017
TGAATCAATT	1.06 ± 0.026
GGACACTCTG	0.977 ± 0.013
TGGGTTTGTC	0.96 ± 0.049
GGGAAAGAGC	1.151 ± 0.0064
TTTGTAGTTT	1.03 ± 0.055
CTTGGGTTTG	1.06 ± 0.14
ATGGGGATTA	0.9956 ± 0.0092
GTTGCGCGTC	1.03 ± 0.024
CCAGACTTTT	0.999 ± 0.043
GAAGGTATAC	1.66 ± 0.18
ACGAAGGTCG	1.03 ± 0.059

Sequence	switch fluorescence ratio
GCCCCCCACA	1.1 ± 0.048
AGTGTGCAGG	0.992 ± 0.017
AATGAGTCGG	0.998 ± 0.033
TGCAATAGGG	1.35 ± 0.12
GGGGACGCTG	0.98 ± 0.012
TTGTTCAAGT	0.998 ± 0.043
TCGCCGAAAT	1.7 ± 0.35
TGTGGGGGTA	0.986 ± 0.034
CGCTTAAGTT	1.004 ± 0.0013
GTGTTAAGGG	0.979 ± 0.028
GGGATTGTTG	0.995 ± 0.041
CGAATGGCCC	1 ± 0.012
GAGAGTGACA	1.01 ± 0.062
GGTCTGAGGG	0.97 ± 0.032
TTCATGTGAA	1 ± 0.04
TTTCGATTCT	0.978 ± 0.029
CATACTCTTC	1 ± 0.065
TGGATTATGT	1.005 ± 0.0045
GGGTGTACCT	1.039 ± 0.0043
